Data: patent US12409260

Biological target: SARS-CoV-2 (2019-nCoV) Spike S1-His Recombinant Protein (Sino Biological Catalog Number 40591-V08H) (SARS-CoV-2) (UniProt P0DTC2)

Galanthus nivalis agglutinin (GNA), sequence (P30617 24-128 limits assumed): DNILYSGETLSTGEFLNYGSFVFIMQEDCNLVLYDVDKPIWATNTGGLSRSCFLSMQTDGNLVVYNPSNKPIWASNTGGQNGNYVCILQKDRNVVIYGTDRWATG

In the case of “Galanthus nivalis agglutinin (GNA) (from UniProt P30617 24-128)”, the percent of S1 depleted from solution at 15 minutes is reported as > 90%.
